Laboratory results reported in patent US9187525B2, “Methods of treating ophthalmic diseases using NPR-B agonists” (Shire Orphan Therapies GmbH, dated 2015).
Values belong to the binder of their own block, whether it stands above or below them. Numbered stars: 1 amine (or outer) side, 2 acyl side, 3 side chain; on linkers, the order of the positions; unused ones are H or OH. Square brackets hold non-standard residues; d marks the D form. * marks the point of attachment. Tap(2Me) = (2S,4R)-4-(dimethylamino)pyrrolidine-2-carboxylic acid, CN(C)[C@@H]1C[C@@H](C(=O)[*:2])N([*:1])C1; Eal = rac-imidazolidine-2-carboxylic acid, O=C(C1N([*:1])CCN1[*:3])[*:2]; 6072‑OH = rac-7-hydroxy-dodecanoic acid, CCCCCC(O)CCCCCC(=O)*; Pro(trans-4-NH2) = O=C([C@@H]1C[C@@H](N[*:3])CN1[*:1])[*:2]; 6071‑OH = rac-6-hydroxy-decanoic acid, CCCCC(O)CCCCC(=O)*; Pro(trans-4-guanidino) = N=C(N)N[C@H]1CN[C@H](C(=O)O)C1; Sni = (S)-nipecotic acid, O=C([C@H]1CCCN([*:1])C1)[*:2]; Azetidine3carboxylic = O=C(C1CN([*:1])C1)[*:2]; Hyp = O=C(O)[C@@H]1C[C@@H](O)CN1; NMeF = CN[C@@H](Cc1ccccc1)C(=O)O; 2Pal = N[C@@H](Cc1ccccn1)C(=O)O; 4Pal = N[C@@H](Cc1ccncc1)C(=O)O; NMeL = CN[C@@H](CC(C)C)C(=O)O; Decanoyl = CCCCCCCCCC(=O)*; dOrn = NCCC[C@@H](N)C(=O)O; SH‑158 = not defined here; Octanoyl = CCCCCCCC(=O)*; dAze = O=C(O)[C@H]1CCN1; Hexanoyl = CCCCCC(=O)*; Sar = CNCC(=O)O

Target: T1, natriuretic peptide receptor-B (human)
T1 chain: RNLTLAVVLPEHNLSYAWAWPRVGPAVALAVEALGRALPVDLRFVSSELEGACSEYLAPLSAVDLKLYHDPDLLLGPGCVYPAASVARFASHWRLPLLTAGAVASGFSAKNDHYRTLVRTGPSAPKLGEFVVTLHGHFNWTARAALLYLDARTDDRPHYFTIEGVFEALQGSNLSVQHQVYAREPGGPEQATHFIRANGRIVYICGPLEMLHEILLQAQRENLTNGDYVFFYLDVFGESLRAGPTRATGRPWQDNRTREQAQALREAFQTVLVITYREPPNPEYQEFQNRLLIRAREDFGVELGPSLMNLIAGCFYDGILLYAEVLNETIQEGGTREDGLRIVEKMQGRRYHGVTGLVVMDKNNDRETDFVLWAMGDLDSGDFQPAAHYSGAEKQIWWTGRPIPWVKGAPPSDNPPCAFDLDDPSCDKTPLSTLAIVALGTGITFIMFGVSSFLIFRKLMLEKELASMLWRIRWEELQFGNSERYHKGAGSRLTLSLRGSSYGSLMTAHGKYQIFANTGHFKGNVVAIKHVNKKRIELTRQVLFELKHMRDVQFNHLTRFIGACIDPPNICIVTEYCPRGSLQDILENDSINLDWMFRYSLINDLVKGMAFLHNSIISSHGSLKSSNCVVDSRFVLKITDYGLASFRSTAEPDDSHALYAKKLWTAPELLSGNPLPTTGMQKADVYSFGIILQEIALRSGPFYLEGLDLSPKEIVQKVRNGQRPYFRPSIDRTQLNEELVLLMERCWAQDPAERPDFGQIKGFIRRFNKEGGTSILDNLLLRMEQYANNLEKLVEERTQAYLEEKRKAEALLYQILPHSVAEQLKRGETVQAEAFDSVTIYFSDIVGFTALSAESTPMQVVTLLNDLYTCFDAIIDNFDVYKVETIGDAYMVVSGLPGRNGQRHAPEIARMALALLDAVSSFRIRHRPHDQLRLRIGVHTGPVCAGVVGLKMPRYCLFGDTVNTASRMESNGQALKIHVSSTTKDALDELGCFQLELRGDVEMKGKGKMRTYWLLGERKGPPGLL
Test: cell-based or functional assay

EC50 group, cGMP in GTM-3 cells: ≤ 1 µM
B1: JAL-1249 (peptide)
peptide: Octanoyl-AFGL[Pro(trans-4-NH2)]LDRI-NH2
modifications: not fully specified (some residues); printed as Occ-ala-Phe-Gly-Leu-Tap-Leu-Asp-Arg-Ile-NH2

EC50 group, cGMP in GTM-3 cells: ≤ 5 µM
Binder: Octanoyl-[dA]F[dL]L[Pro(trans-4-guanidino)]LDRI-NH2 [JAL-1272]

EC50 group, cGMP in GTM-3 cells: ≤ 5 µM
B2: JAL-1262 (peptide)
peptide: Octanoyl-AFGL[Tap(2Me)]LDRI-NH2
modifications: not fully specified (some residues); printed as Occ-ala-Phe-Gly-Leu-Tap(2Me)-Leu-Asp-Arg-Ile-

EC50 group, cGMP in GTM-3 cells: ≤ 15 µM
Binder: Hexanoyl-A[dA]FGLKLDRI-NH2 [JAL-0632]

EC50 group, cGMP in GTM-3 cells: ≤ 1 µM
B3: JAL-1265 (peptide)
peptide: Octanoyl-[Sni]FXL[Hyp][NMeL]DRI-NH2
modifications: not fully specified (some residues); printed as Occ-Sni-Phe-orn-Leu-Hyp-Nml-Asp-Arg-Ile-NH2

EC50 group, cGMP in GTM-3 cells: ≤ 1 µM
Binder: XAFXLXXDRI (Occ-ala-Phe-orn(Me2)-Leu-Hyp-Nml-Asp-Arg-Ile-NH2) [JAL-1288]

EC50 group, cGMP in GTM-3 cells: ≤ 5 µM
B4: JAL-1253 (peptide)
peptide: Octanoyl-[Sni]FSL[Hyp][NMeL]DRI-NH2
modifications: not fully specified (some residues); printed as Occ-Sni-Phe-ser-Leu-Hyp-Nml-Asp-Arg-Ile-NH2

EC50 group, cGMP in GTM-3 cells: ≤ 1 µM
B5: JAL-1252 (peptide)
peptide: Octanoyl-AFSL[Hyp][NMeL]DRI-NH2
modifications: not fully specified (some residues); printed as Occ-ala-Phe-ser-Leu-Hyp-Nml-Asp-Arg-Ile-NH2

EC50 group, cGMP in GTM-3 cells: ≤ 5 µM
Binder: Octanoyl-[dAze]F[dR]L[Hyp][NMeL]DRI-NH2 [JAL-1274]

EC50 group, cGMP in GTM-3 cells: ≤ 5 µM
Binder: Octanoyl-[Azetidine3carboxylic]F[dR]L[Hyp][NMeL]DRI-NH2 [JAL-1275]

EC50 group, cGMP in GTM-3 cells: ≤ 1 µM
B6: JAL-1283 (peptide)
peptide: Octanoyl-[dA]F[dL]L[Hyp][SH‑158]DRI-NH2
modifications: reading uncertain; also: printed as Occ-ala-Phe-leu-Leu-Hyp-(SH-158)-Asp-Arg-Ile-NH2

EC50 group, cGMP in GTM-3 cells: ≤ 1 µM
B7: JAL-1284 (peptide)
peptide: Octanoyl-[dA]F[dR]L[Hyp][SH‑158]DRI-NH2
modifications: reading uncertain; also: printed as Occ-ala-Phe-arg-Leu-Hyp-(SH-158)-Asp-Arg-Ile-NH2

EC50 group, cGMP in GTM-3 cells: ≤ 15 µM
B8: JAL-1259 (peptide)
peptide: {6071‑OH}-FRL[Hyp][NMeL]DRI-NH2
modifications: not fully specified (some residues); printed as (6071-OH)-Phe-arg-Leu-Hyp-Nml-Asp-Arg-Ile-NH2

EC50 group, cGMP in GTM-3 cells: ≤ 15 µM
Binder: Hexanoyl-S[dA]FGLKLDRI-NH2 [JAL-0633]

EC50 group, cGMP in GTM-3 cells: ≤ 1 µM
B9: JAL-1250 (peptide)
peptide: Octanoyl-AFRL[Pro(trans-4-NH2)]LDRI-NH2
modifications: not fully specified (some residues); printed as Occ-ala-Phe-arg-Leu-Tap-Leu-Asp-Arg-Ile-NH2

EC50 group, cGMP in GTM-3 cells: ≤ 15 µM
B10: JAL-1261 (peptide)
peptide: Decanoyl-FRL[Hyp][NMeL]DRI-NH2
modifications: not fully specified (some residues); printed as 5587-Phe-arg-Leu-Hyp-Nml-Asp-Arg-Ile-NH2

EC50 group, cGMP in GTM-3 cells: ≤ 1 µM
B11: JAL-1255 (peptide)
peptide: Octanoyl-[Sni]FRL[Hyp][NMeL]DRI-NH2
modifications: not fully specified (some residues); printed as Occ-Sni-Phe-arg-Leu-Hyp-Nml-Asp-Arg-Ile-NH2

EC50 group, cGMP in GTM-3 cells: ≤ 5 µM
B12: JAL-1268 (peptide)
peptide: Octanoyl-A[NMeF]KL[Hyp][NMeL]DRI-NH2
modifications: not fully specified (some residues); printed as Occ-ala-Nmf-lys-Leu-Hyp-Nml-Asp-Arg-Ile-

EC50 group, cGMP in GTM-3 cells: ≤ 5 µM
Binder: Octanoyl-[dA]FGL[Pro(trans-4-guanidino)]LDRI-NH2 [JAL-1270]

EC50 group, cGMP in GTM-3 cells: ≤ 15 µM
Binder: Hexanoyl-G[dA]FGLKLDRI-NH2 [JAL-0631]

EC50 group, cGMP in GTM-3 cells: ≤ 5 µM
Binder: Octanoyl-[Sar]F[dR]L[Hyp][NMeL]DRI-NH2 [JAL-1273]

EC50 group, cGMP in GTM-3 cells: ≤ 15 µM
B13: JAL-1257 (peptide)
peptide: Octanoyl-[Sni][4Pal]LL[Hyp][NMeL]DRI-NH2
modifications: not fully specified (some residues); printed as Occ-Sni-Ppa-leu-Leu-Hyp-Nml-Asp-Arg-Ile-NH2

EC50 group, cGMP in GTM-3 cells: ≤ 1 µM
B14: JAL-1251 (peptide)
peptide: Octanoyl-AFLL[Pro(trans-4-NH2)]DRI-NH2
modifications: not fully specified (some residues); printed as Occ-ala-Phe-leu-Leu-Tap-Asp-Arg-Ile-NH2

EC50 group, cGMP in GTM-3 cells: ≤ 5 µM
B15: JAL-1263 (peptide)
peptide: Octanoyl-AFRL[Tap(2Me)]LDRI-NH2
modifications: not fully specified (some residues); printed as Occ-ala-Phe-arg-Leu-Tap(2Me)-Leu-Asp-Arg-Ile-NH2

EC50 group, cGMP in GTM-3 cells: ≤ 15 µM
B16: JAL-1256 (peptide)
peptide: Octanoyl-[Sni]XLL[Hyp][NMeL]DRI-NH2
modifications: not fully specified (some residues); printed as Occ-Sni-Mpa-leu-Leu-Hyp-Nml-Asp-Arg-Ile-

EC50 group, cGMP in GTM-3 cells: ≤ 5 µM
Binder: Octanoyl-[dA][NMeF][dOrn]L[Hyp][NMeL]DRI-NH2 [JAL-1269]

EC50 group, cGMP in GTM-3 cells: ≤ 5 µM
Binder: Octanoyl-[dA]F[dR]L[Pro(trans-4-guanidino)]LDRI-NH2 [JAL-1271]

EC50 group, cGMP in GTM-3 cells: ≤ 5 µM
B17: JAL-1266 (peptide)
peptide: Octanoyl-[Sni][2Pal]LL[Hyp][NMeL]DRI-NH2
modifications: not fully specified (some residues); printed as Occ-Sni-Opa-leu-Leu-Hyp-Nml-Asp-Arg-Ile-

EC50 group, cGMP in GTM-3 cells: ≤ 15 µM
Binder: Octanoyl-[dA]FGL[Eal][NMeL]DRI-NH2 [JAL-1282]

EC50 group, cGMP in GTM-3 cells: ≤ 5 µM
B18: JAL-1260 (peptide)
peptide: {6072‑OH}-FRL[Hyp][NMeL]DRI-NH2
modifications: not fully specified (some residues); printed as (6072-OH)-Phe-arg-Leu-Hyp-Nml-Asp-Arg-Ile-NH2

EC50 group, cGMP in GTM-3 cells: ≤ 1 µM
B19: JAL-1254 (peptide)
peptide: Octanoyl-[Sni]FKL[Hyp][NMeL]DRI-NH2
modifications: not fully specified (some residues); printed as Occ-Sni-Phe-lys-Leu-Hyp-Nml-Asp-Arg-Ile-NH2

EC50 group, cGMP in GTM-3 cells: ≤ 5 µM
Binder: Octanoyl-[dA]F[dL]L[Eal][NMeL]DRI-NH2 [JAL-1281_01]

EC50 group, cGMP in GTM-3 cells: ≤ 5 µM
B20: JAL-1264 (peptide)
peptide: Octanoyl-AFLL[Tap(2Me)]LDRI-NH2
modifications: not fully specified (some residues); printed as Occ-ala-Phe-leu-Leu-Tap(2Me)-Leu-Asp-Arg-Ile-NH2

EC50 group, cGMP in GTM-3 cells: ≤ 1 µM
Binder: XXFXLXXDRI (Occ-Sni-Phe-dap(Me2)-Leu-Hyp-Nml-Asp-Arg-Ile-NH2) [JAL-1287]
